Reference: US20120009190A1 (Amgen, published 2012)

Legend:
[1] = molecular target: mouse IL-17RA (IL-17 receptor) on ST-2 cells (mouse) (UniProt Q60943); assay: cell-based or functional assay
[2] = molecular target: T1, huIL-17.Fc (huIL17 with N-terminal flag and huFC (IgG1)) (human, UniProt Q16552 24-155); assay: flow cytometry, huIL-17.Fc staining with anti-huIgG-APC
T1 construct: also called IL-17 fused to human Fc; not shown: human IgG1 Fc (huFC)
Procedure: Cells were incubated with M750 or M177 anti-mouse IL-17RA followed by anti-rat PE (BD Pharmigen). To prepare huIL-17.Fc, a cDNA encoding huIL17, N-terminal flag and huFC (IgG1) was amplified by PCR and cloned into the Pdc409 vector. Secreted IL17.Fc was purified from transfected COS cells over a Protein A column and its concentration determined using a human Fc ELISA. For binding, 293 cells were blocked with anti-human IL-17RA (M202) and stained with huIL17.Fc followed by anti-hulgG-APC (Jackson Immunoresearch, West Grove, Pa.). Data were analyzed on a FACSCalibur with Cell Quest software (BD Biosciences). FRET data were obtained from three channel images using the macro of LSM FRET tool software (Zeiss AIM software, per standard techniques). A minimum of 50 regions of interest at the membrane were assessed for each condition. FRET efficiencies were calculated by the NFRET method and significance determined by t-test.

[3] = molecular target: human IL-17RA on normal human foreskin fibroblasts (HFF) (human) (UniProt Q96F46); assay: cell-based or functional assay
[4] = molecular target: T2, IL-17RA FN1 domain fused to the Gal4 DNA binding domain (pGBKT7) (yeast, UniProt P04386 1-147, limits assumed); assay: yeast two-hybrid, growth on -Leu/-Trp/-Ade
T2 construct: Only the FN1 domain was used
Procedure: The IL-17RA ECD, FN2, FN2/linker and FN1 domains were fused to the Ga14 DNA binding domain (BD) or activation domain (AD) in the Pgbkt7 and Pgadat7 yeast expression plasmids (BD Clontech). S. cerevisiae were transformed by standard methods, and growth on Leu-Trp-deficient plates or Leu-Trp-Ade-deficient plates was evaluated by colony counting. CARMA1 (provided by X. Lin, MD Anderson Cancer Center, Houston Tex.) was used a positive control.
To obtain the data presented Table 1, full length (FL) IL-17RA or the FN1, FN2/linker or FN2 domains were fused to the yeast Ga14 DNA binding domain (BD) or activation domain (AD) in the pGBKT7 and pGADT7 plasmids. S. cerevisiae were transformed with the indicated pairs of plasmids and growth on Leu-Trp-deficient plates (selecting for both plasmids) or Leu-Trp-Ade-deficient plates (selecting for each plasmid and an interaction) was evaluated. CARMA1 was a positive control. FL, full length. FN, fibronectin.

mouse IL-17RA (IL-17 receptor) on ST-2 cells (mouse), sequence (Q60943 32-864): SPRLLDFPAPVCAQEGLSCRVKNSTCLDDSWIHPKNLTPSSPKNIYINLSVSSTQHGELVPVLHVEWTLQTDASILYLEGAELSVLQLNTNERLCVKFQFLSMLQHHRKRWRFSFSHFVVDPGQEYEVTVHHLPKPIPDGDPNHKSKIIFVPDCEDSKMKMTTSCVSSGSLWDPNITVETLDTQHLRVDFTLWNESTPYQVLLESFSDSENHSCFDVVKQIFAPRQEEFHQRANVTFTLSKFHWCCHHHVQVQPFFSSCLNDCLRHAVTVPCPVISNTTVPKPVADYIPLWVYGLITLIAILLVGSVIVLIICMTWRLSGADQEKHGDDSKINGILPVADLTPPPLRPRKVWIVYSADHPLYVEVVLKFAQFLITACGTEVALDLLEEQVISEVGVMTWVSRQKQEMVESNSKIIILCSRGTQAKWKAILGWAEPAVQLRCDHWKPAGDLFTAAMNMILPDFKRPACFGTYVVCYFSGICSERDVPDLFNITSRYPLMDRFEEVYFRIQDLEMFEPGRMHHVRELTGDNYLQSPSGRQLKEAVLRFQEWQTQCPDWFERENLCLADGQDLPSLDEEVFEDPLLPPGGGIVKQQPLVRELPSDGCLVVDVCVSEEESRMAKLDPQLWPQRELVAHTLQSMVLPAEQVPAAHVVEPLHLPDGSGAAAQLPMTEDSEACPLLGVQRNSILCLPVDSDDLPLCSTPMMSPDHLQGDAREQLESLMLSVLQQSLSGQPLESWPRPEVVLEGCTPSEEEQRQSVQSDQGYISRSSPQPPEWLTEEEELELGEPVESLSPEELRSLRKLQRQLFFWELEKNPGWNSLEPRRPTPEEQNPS
T1 sequence (Q16552 other isoform, or with tags, fused parts or gaps limits assumed): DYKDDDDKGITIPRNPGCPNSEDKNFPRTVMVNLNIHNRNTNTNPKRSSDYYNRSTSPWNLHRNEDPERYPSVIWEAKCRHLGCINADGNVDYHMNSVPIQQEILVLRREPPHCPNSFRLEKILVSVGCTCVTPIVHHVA

muPLAD (murine PLAD construct, FN2 of mouse IL-17RA without the linker) (from UniProt Q60943 205-283) (receptor)
IL-6 (ELISA) from ST-2 cells + IL-17A 10 ng/ml, muPLAD at 3 ug/ml [1]: 2240 pg/mL | IL-6 (ELISA) from ST-2 cells + IL-17A 10 ng/ml, muPLAD at 3 ug/ml (Example 9) [1]: 155 pg/mL | IL-6 (ELISA) from ST-2 cells + IL-17A 10 ng/ml, muPLAD at 10 ug/ml [1]: 2530 pg/mL | IL-6 (ELISA) from ST-2 cells + IL-17A 10 ng/ml, muPLAD at 10 ug/ml (Example 9) [1]: 125 pg/mL | IL-6 (ELISA) from ST-2 cells + IL-17A 10 ng/ml, muPLAD at 30 ug/ml [1]: 2040 pg/mL | IL-6 (ELISA) from ST-2 cells + IL-17A 10 ng/ml, muPLAD at 30 ug/ml (Example 9) [1]: 108 pg/mL | IL-6 (ELISA) from ST-2 cells + IL-17A + TNFa 2 ng/ml, muPLAD at 3 ug/ml [1]: 6980 pg/mL | IL-6 (ELISA) from ST-2 cells + IL-17A + TNFa 2 ng/ml, muPLAD at 10 ug/ml [1]: 6980 pg/mL | IL-6 (ELISA) from ST-2 cells + IL-17A + TNFa 2 ng/ml, muPLAD at 30 ug/ml [1]: 6980 pg/mL | KC (Groα) (ELISA) from ST-2 cells + IL-17A 10 ng/ml, muPLAD at 3 ug/ml [1]: 6190 pg/mL | KC (Groα) (ELISA) from ST-2 cells + IL-17A 10 ng/ml, muPLAD at 10 ug/ml [1]: 6130 pg/mL | KC (Groα) (ELISA) from ST-2 cells + IL-17A 10 ng/ml, muPLAD at 30 ug/ml [1]: 6100 pg/mL | KC (Groα) (ELISA) from ST-2 cells + IL-17A + TNFa, muPLAD at 3 ug/ml [1]: 6150 pg/mL | KC (Groα) (ELISA) from ST-2 cells + IL-17A + TNFa, muPLAD at 10 ug/ml [1]: 6460 pg/mL | KC (Groα) (ELISA) from ST-2 cells + IL-17A + TNFa, muPLAD at 30 ug/ml [1]: 6300 pg/mL

muPLAD-L (murine PLAD/Linker construct, linker and FN2 of mouse IL-17RA) (from UniProt Q60943 184-283) (receptor)
IL-6 (ELISA) from ST-2 cells + IL-17A 10 ng/ml, muPLAD-L at 3 ug/ml [1]: 2710 pg/mL | IL-6 (ELISA) from ST-2 cells + IL-17A 10 ng/ml, muPLAD-L at 3 ug/ml (Example 9) [1]: 182 pg/mL | IL-6 (ELISA) from ST-2 cells + IL-17A 10 ng/ml, muPLAD-L at 10 ug/ml [1]: 2790 pg/mL | IL-6 (ELISA) from ST-2 cells + IL-17A 10 ng/ml, muPLAD-L at 10 ug/ml (Example 9) [1]: 110 pg/mL | IL-6 (ELISA) from ST-2 cells + IL-17A 10 ng/ml, muPLAD-L at 30 ug/ml [1]: 1880 pg/mL | IL-6 (ELISA) from ST-2 cells + IL-17A 10 ng/ml, muPLAD-L at 30 ug/ml (Example 9) [1]: 110 pg/mL | IL-6 (ELISA) from ST-2 cells + IL-17A + TNFa 2 ng/ml, muPLAD-L at 3 ug/ml [1]: 7020 pg/mL | IL-6 (ELISA) from ST-2 cells + IL-17A + TNFa 2 ng/ml, muPLAD-L at 10 ug/ml [1]: 7040 pg/mL | IL-6 (ELISA) from ST-2 cells + IL-17A + TNFa 2 ng/ml, muPLAD-L at 30 ug/ml [1]: 7180 pg/mL | KC (Groα) (ELISA) from ST-2 cells + IL-17A 10 ng/ml, muPLAD-L at 3 ug/ml [1]: 5980 pg/mL | KC (Groα) (ELISA) from ST-2 cells + IL-17A 10 ng/ml, muPLAD-L at 10 ug/ml [1]: 5440 pg/mL | KC (Groα) (ELISA) from ST-2 cells + IL-17A 10 ng/ml, muPLAD-L at 30 ug/ml [1]: 6230 pg/mL | KC (Groα) (ELISA) from ST-2 cells + IL-17A + TNFa, muPLAD-L at 3 ug/ml [1]: 5750 pg/mL | KC (Groα) (ELISA) from ST-2 cells + IL-17A + TNFa, muPLAD-L at 10 ug/ml [1]: 5550 pg/mL | KC (Groα) (ELISA) from ST-2 cells + IL-17A + TNFa, muPLAD-L at 30 ug/ml [1]: 5500 pg/mL

B1: FN2 domain construct of IL-17RA (lacking FN1 and the linker), expressed on cells (receptor)
chain: PNITVETLDTQHLRVDFTLWNESTPYQVLLESFSDSENHSCFDVVKQIFAPRQEEFHQRANVTFTLSKFHWCCHHHVQV
notes: not shown: transmembrane region, cytoplasmic part and any tag of the construct
binding result [2]: no binding

B2: IL-17R PLAD-mod-GSS-FH (recombinant human IL-17R PLAD without the linker, second generation construct) (receptor)
chain: PNITVETLEAHQLRVSFTLWNESTHYQILLTSFPHMENHSCFEHMHHIPAPRPEEFHQRSNVTLTLRNLKGCCRHQVQIQPFFSSCLNDCLRHSATVSCPEMPDTPEPIPDGSSDYKDDDDKGSSHHHHHH
GROα (ELISA) from HFF + 5 ng/mL huIL-17A, IL-17R PLAD-mod-GSS-FH at 0.032 ug/mL [3]: 467 pg/mL | GROα (ELISA) from HFF + 5 ng/mL huIL-17A, IL-17R PLAD-mod-GSS-FH at 0.16 ug/mL [3]: 486 pg/mL | GROα (ELISA) from HFF + 5 ng/mL huIL-17A, IL-17R PLAD-mod-GSS-FH at 0.8 ug/mL [3]: 484 pg/mL | GROα (ELISA) from HFF + 5 ng/mL huIL-17A, IL-17R PLAD-mod-GSS-FH at 4 ug/mL [3]: 499 pg/mL | GROα (ELISA) from HFF + 5 ng/mL huIL-17A, IL-17R PLAD-mod-GSS-FH at 20 ug/mL [3]: 440 pg/mL | GROα (ELISA) from HFF + 5 ng/mL huIL-17A, IL-17R PLAD-mod-GSS-FH at 100 ug/mL [3]: 411 pg/mL

B3: IL-17RA FN1 domain fused to the Gal4 activation domain (pGADT7) (other, not shown: large carriers)
chain: TPSSPKNIYINLSVSSTQHGELVPVLHVEWTLQTDASILYLEGAELSVLQLNTNERLCVKFQFLSMLQHHRKRWRFSFSHFVVDPGQEYEVTVHHLPKPIPDGDPNHKSKIIFVP
notes: Only the FN1 domain was used; Species is inferred as mouse
binding result [4]: no binding

B4: IL-17R PLAD-LINKER-GSS-FH (recombinant human IL-17R PLAD-linker, first generation construct) (receptor)
chain: DCEHARMKVTTPCMSSGSLWDPNITVETLEAHQLRVSFTLWNESTHYQILLTSFPHMENHSCFEHMHHIPAPRPEEFHQRSNVTLTLRNLKGCCRHQVQ
GROα (ELISA) from HFF + 5 ng/mL huIL-17A, IL-17R PLAD-LINKER-GSS-FH at 0.032 ug/mL [3]: 437 pg/mL | GROα (ELISA) from HFF + 5 ng/mL huIL-17A, IL-17R PLAD-LINKER-GSS-FH at 0.16 ug/mL [3]: 541 pg/mL | GROα (ELISA) from HFF + 5 ng/mL huIL-17A, IL-17R PLAD-LINKER-GSS-FH at 0.8 ug/mL [3]: 460 pg/mL | GROα (ELISA) from HFF + 5 ng/mL huIL-17A, IL-17R PLAD-LINKER-GSS-FH at 4 ug/mL [3]: 381 pg/mL | GROα (ELISA) from HFF + 5 ng/mL huIL-17A, IL-17R PLAD-LINKER-GSS-FH at 20 ug/mL [3]: 310 pg/mL | GROα (ELISA) from HFF + 5 ng/mL huIL-17A, IL-17R PLAD-LINKER-GSS-FH at 100 ug/mL [3]: 315 pg/mL

B5: IL-17R PLAD-GSS-FH (recombinant human IL-17R PLAD without the linker, first generation construct) (receptor)
chain: PNITVETLEAHQLRVSFTLWNESTHYQILLTSFPHMENHSCFEHMHHIPAPRPEEFHQRSNVTLTLRNLKGCCRHQVQ
GROα (ELISA) from HFF + 5 ng/mL huIL-17A, IL-17R PLAD-GSS-FH at 0.032 ug/mL [3]: 460 pg/mL | GROα (ELISA) from HFF + 5 ng/mL huIL-17A, IL-17R PLAD-GSS-FH at 0.16 ug/mL [3]: 463 pg/mL | GROα (ELISA) from HFF + 5 ng/mL huIL-17A, IL-17R PLAD-GSS-FH at 0.8 ug/mL [3]: 471 pg/mL | GROα (ELISA) from HFF + 5 ng/mL huIL-17A, IL-17R PLAD-GSS-FH at 4 ug/mL [3]: 420 pg/mL | GROα (ELISA) from HFF + 5 ng/mL huIL-17A, IL-17R PLAD-GSS-FH at 20 ug/mL [3]: 363 pg/mL | GROα (ELISA) from HFF + 5 ng/mL huIL-17A, IL-17R PLAD-GSS-FH at 100 ug/mL [3]: 300 pg/mL
